{"source": "patent US20220143148A1", "about": "“COMPOSITIONS AND METHODS FOR MODULATING CGRP SIGNALING TO REGULATE INTESTINAL INNATE LYMPHOID CELLS” (The Broad Institute, Inc., priority 2019, published 2022)", "molecules": {"B1": {"name": "OVA (protein, UniProt P01012 2-386, looked up)", "Ovalbumin": "GSIGAASMEFCFDVFKELKVHHANENIFYCPIAIMSALAMVYLGAKDSTRTQINKVVRFDKLPGFGDSIEAQCGTSVNVHSSLRDILNQITKPNDVYSFSLASRLYAEERYPILPEYLQCVKELYRGGLEPINFQTAADQARELINSWVESQTNGIIRNVLQPSSVDSQTAMVLVNAIVFKGLWEKAFKDEDTQAMPFRVTEQESKPVQMMYQIGLFRVASMASEKMKILELPFASGTMSMLVLLPDEVSGLEQLESIINFEKLTEWTSSNVMEERKIKVYLPRMKMEEKYNLTSVLMAMGITDVFSSSANLSGISSAESLKISQAVHAAHAEINEAGREVVGSAEAGVDAASVSEEFRADHPFLFCIKHIATNAVLFFGRCVSP"}}, "test_system": "small intestinal immune cells", "assay": "Droplet-based scRNA-seq of small intestinal immune cells (LP and PP), OVA vs PBS, clustering and differential expression", "format": "in vivo, mouse", "conditions": "PP", "excerpt": "To comprehensively characterize small intestinal immune cells, Applicants generated scRNA-Seq profiles for 58,067 immune cells collected from lamina propria (LP) and Peyer's patch (PP) regions at steady state and after induction of a type 2 inflammatory reaction to ovalbumin (OVA) (Brandt et al., 2003) (FIGS. 1A and 8A). To ensure sufficient representation of rare cells, Applicants combined a normalization strategy—removing by flow sorting either a portion of IgD+ naïve B cells, which are the most abundant cell type in PPs, or all CD19+ and CD3+ T cells (FIG. 8B, Methods)—with profiling of a sufficiently large number of cells number (P>0.99 to recover at least 15 cells from each cluster, Methods) by massively parallel scRNA-seq (Haber et al., 2017) (Methods). Applicants obtained 36,797 and 21,270 high quality cells passing initial filtering (Methods) from PP and LP regions, respectively.\nOverall, Applicants annotated 27 cell subsets across the two compartments, spanning T cells, B cells, ILCs, dendritic cells (DCs), myeloid cells and stromal cells, in frequencies ranging from 0.07% to 14%. Briefly, Applicants first partitioned the cells from the PP regions by unsupervised clustering (Methods) into 46 clusters, retained the 97% of cells that were robustly assigned cell identities in each cluster (Methods), assigned the cells from the LP regions to the 46 clusters using a classifier (Methods), and visualized the data with scvis (Ding et al., 2018), a deep generative model-based method (FIGS. 1B and 8C, Methods). Next, Applicants identified genes that were differentially expressed between the cells in each cluster and the remaining cells (Table 1, Methods), as well as between pairs of clusters (Table 2), to elucidate identities of similar cell types/states. Applicants excluded from downstream analysis clusters mostly consisting of contaminants from epithelium, likely doublets, or cells with a small number of Unique Molecular Identifiers (UMIs) (FIGS. 1C and 8D), or lacking distinct markers (Methods). Altogether, Applicants retained 27 clusters spanning 85% of the cells and each associated with distinct marker genes (FIG. 8E, Methods).\nTo induce allergic reaction to OVA, 6 to 7 weeks old mice were sensitized twice, two weeks apart, with 50 μg of OVA plus 1 mg of aluminum potassium sulfate adjuvant via intraperitoneal injection. Two weeks later, mice were orally administered with 50 mg of OVA on every other day for a total of five times. 1 μg of α-CGRP peptide was administered simultaneously when indicated. Mice were deprived of food for 3-4 hours in cages with wood chip bedding for limiting antigen degradation in the stomach before each intragastric challenge.\nIsolation of cells from Peyer's patches (PPs). Peyer's patches (PPs) were carefully dissected from the small intestine under a stereo microscope using a fine scissor, pierced once with a fine forcep. Tissues were digested in freshly made digestion buffer (RPMI-1640 containing 100 μg/ml Liberase™ and 50 μg/ml DNase I at 37° C. on a roto-mixer. After 15 min, tissues were very gently mixed using a 1 ml pipette. The supernatant was collected and added to ice-cold MACS buffer (pH 7.4; PBS plus 2% FCS and 2 mM EDTA). Pre-warmed (37° C.) fresh digestion buffer was added to the remaining tissues. After rotation at 37° C. for 15 min, the mixture was vigorously mixed using a 1 ml pipette for 1 min. Supernatants from the two steps were combined and passed through 70 μm filters and stained for FACS (below).\nIsolation of cells from the lamina propria (LP). The small intestines were opened longitudinally and washed in ice-cold PBS. For scRNA-seq, roughly 0.5 cm of fragments from each of the distal, middle and proximal regions without visible PPs were collected. Epithelial cells were dissociated by tissue rotation in pre-warmed (37° C.) PBS containing 10 mM EDTA at 37° C. for 15 min, followed by additional incubation on ice for 15 min. Tissues were then shaken vigorously. […]"}
{"molecule": "B1", "values": [{"measurement": "Ptprcap LN (average fold change)", "setting": "cluster ID 8, OVA vs PBS", "value": 0.276}, {"measurement": "Rab35 LN (average fold change)", "setting": "cluster ID 8, OVA vs PBS", "value": 0.478}, {"measurement": "Rac2 LN (average fold change)", "setting": "cluster ID 8, OVA vs PBS", "value": 0.169}, {"measurement": "Rel LN (average fold change)", "setting": "cluster ID 8, OVA vs PBS", "value": "−0.595"}, {"measurement": "Rgs1 LN (average fold change)", "setting": "cluster ID 8, OVA vs PBS", "value": 0.795}, {"measurement": "Rnf125 LN (average fold change)", "setting": "cluster ID 8, OVA vs PBS", "value": "−0.483"}, {"measurement": "Rnf157 LN (average fold change)", "setting": "cluster ID 8, OVA vs PBS", "value": "−0.362"}, {"measurement": "Rora LN (average fold change)", "setting": "cluster ID 8, OVA vs PBS", "value": "−0.455"}, {"measurement": "Rrad LN (average fold change)", "setting": "cluster ID 8, OVA vs PBS", "value": "−0.602"}, {"measurement": "Rsrp1 LN (average fold change)", "setting": "cluster ID 8, OVA vs PBS", "value": 0.318}, {"measurement": "Samd9l LN (average fold change)", "setting": "cluster ID 8, OVA vs PBS", "value": 0.479}, {"measurement": "Samsn1 LN (average fold change)", "setting": "cluster ID 8, OVA vs PBS", "value": "−0.280"}, {"measurement": "Sh2d1a LN (average fold change)", "setting": "cluster ID 8, OVA vs PBS", "value": 0.388}, {"measurement": "Sik1 LN (average fold change)", "setting": "cluster ID 8, OVA vs PBS", "value": "−0.527"}, {"measurement": "Skil LN (average fold change)", "setting": "cluster ID 8, OVA vs PBS", "value": "−0.410"}, {"measurement": "Sla LN (average fold change)", "setting": "cluster ID 8, OVA vs PBS", "value": 0.486}, {"measurement": "Slfn2 LN (average fold change)", "setting": "cluster ID 8, OVA vs PBS", "value": 0.342}, {"measurement": "Sp100 LN (average fold change)", "setting": "cluster ID 8, OVA vs PBS", "value": 0.330}, {"measurement": "Taf10 LN (average fold change)", "setting": "cluster ID 8, OVA vs PBS", "value": "−0.372"}, {"measurement": "Tfam LN (average fold change)", "setting": "cluster ID 8, OVA vs PBS", "value": "−0.555"}, {"measurement": "Tgif1 LN (average fold change)", "setting": "cluster ID 8, OVA vs PBS", "value": "−0.580"}, {"measurement": "Tm6sf1 LN (average fold change)", "setting": "cluster ID 8, OVA vs PBS", "value": 0.360}, {"measurement": "Traf1 LN (average fold change)", "setting": "cluster ID 8, OVA vs PBS", "value": "−0.355"}, {"measurement": "Tsc22d3 LN (average fold change)", "setting": "cluster ID 8, OVA vs PBS", "value": 0.472}, {"measurement": "Tuba4a LN (average fold change)", "setting": "cluster ID 8, OVA vs PBS", "value": "−0.361"}, {"measurement": "Txndc5 LN (average fold change)", "setting": "cluster ID 8, OVA vs PBS", "value": 0.592}, {"measurement": "Txnip LN (average fold change)", "setting": "cluster ID 8, OVA vs PBS", "value": 1.190}, {"measurement": "Ube2s LN (average fold change)", "setting": "cluster ID 8, OVA vs PBS", "value": "−0.248"}, {"measurement": "VgIl4 LN (average fold change)", "setting": "cluster ID 8, OVA vs PBS", "value": "−0.452"}, {"measurement": "Vps37b LN (average fold change)", "setting": "cluster ID 8, OVA vs PBS", "value": "−0.178"}, {"measurement": "Zc3h12a LN (average fold change)", "setting": "cluster ID 8, OVA vs PBS", "value": "−0.680"}, {"measurement": "Zfp36l2 LN (average fold change)", "setting": "cluster ID 8, OVA vs PBS", "value": 0.382}, {"measurement": "Zfp512 LN (average fold change)", "setting": "cluster ID 8, OVA vs PBS", "value": 0.523}, {"measurement": "AC125149.3 percentage of expressing cells in OVA-treated group", "setting": "cluster ID 9", "value": 0.619}, {"measurement": "Actg1 percentage of expressing cells in OVA-treated group", "setting": "cluster ID 9", "value": 1}, {"measurement": "Apobec1 percentage of expressing cells in OVA-treated group", "setting": "cluster ID 9", "value": 0.86}, {"measurement": "Basp1 percentage of expressing cells in OVA-treated group", "setting": "cluster ID 9", "value": 0.871}, {"measurement": "Cdk1 percentage of expressing cells in OVA-treated group", "setting": "cluster ID 9", "value": 0.478}, {"measurement": "Cks1brt percentage of expressing cells in OVA-treated group", "setting": "cluster ID 9", "value": 0.262}, {"measurement": "Ddit4 percentage of expressing cells in OVA-treated group", "setting": "cluster ID 9", "value": 0.241}, {"measurement": "Eif2ak3 percentage of expressing cells in OVA-treated group", "setting": "cluster ID 9", "value": 0.384}, {"measurement": "Hspa8 percentage of expressing cells in OVA-treated group", "setting": "cluster ID 9", "value": 0.995}, {"measurement": "Igha percentage of expressing cells in OVA-treated group", "setting": "cluster ID 9", "value": 0.566}, {"measurement": "Ighg3 percentage of expressing cells in OVA-treated group", "setting": "cluster ID 9", "value": 0.211}, {"measurement": "Il2 percentage of expressing cells in OVA-treated group", "setting": "cluster ID 9", "value": 0.244}, {"measurement": "Lnx2 percentage of expressing cells in OVA-treated group", "setting": "cluster ID 9", "value": 0.191}, {"measurement": "Malat1 percentage of expressing cells in OVA-treated group", "setting": "cluster ID 9", "value": 1}, {"measurement": "Mcpt1 percentage of expressing cells in OVA-treated group", "setting": "cluster ID 9", "value": 0.156}, {"measurement": "Narf percentage of expressing cells in OVA-treated group", "setting": "cluster ID 9", "value": 0.441}, {"measurement": "Nme2 percentage of expressing cells in OVA-treated group", "setting": "cluster ID 9", "value": 0.4}, {"measurement": "Rsrp1 percentage of expressing cells in OVA-treated group", "setting": "cluster ID 9", "value": 0.796}, {"measurement": "Tsc22d3 percentage of expressing cells in OVA-treated group", "setting": "cluster ID 9", "value": 0.669}, {"measurement": "Tubb5 percentage of expressing cells in OVA-treated group", "setting": "cluster ID 9", "value": 0.966}, {"measurement": "Uba52 percentage of expressing cells in OVA-treated group", "setting": "cluster ID 9", "value": 0.996}, {"measurement": "Ubb percentage of expressing cells in OVA-treated group", "setting": "cluster ID 9", "value": 0.998}, {"measurement": "Wdr89 percentage of expressing cells in OVA-treated group", "setting": "cluster ID 9", "value": 0.993}, {"measurement": "Zfp36l2 percentage of expressing cells in OVA-treated group", "setting": "cluster ID 9", "value": 0.758}, {"measurement": "AC125149.3 LN (average fold change)", "setting": "cluster ID 9, OVA vs PBS", "value": 0.342}, {"measurement": "Actg1 LN (average fold change)", "setting": "cluster ID 9, OVA vs PBS", "value": "−0.161"}, {"measurement": "Apobec1 LN (average fold change)", "setting": "cluster ID 9, OVA vs PBS", "value": 0.201}, {"measurement": "Basp1 LN (average fold change)", "setting": "cluster ID 9, OVA vs PBS", "value": "−0.559"}, {"measurement": "Cdk1 LN (average fold change)", "setting": "cluster ID 9, OVA vs PBS", "value": "−0.396"}, {"measurement": "Cks1brt LN (average fold change)", "setting": "cluster ID 9, OVA vs PBS", "value": 1.033}, {"measurement": "Ddit4 LN (average fold change)", "setting": "cluster ID 9, OVA vs PBS", "value": 0.791}, {"measurement": "Eif2ak3 LN (average fold change)", "setting": "cluster ID 9, OVA vs PBS", "value": 0.581}, {"measurement": "Hspa8 LN (average fold change)", "setting": "cluster ID 9, OVA vs PBS", "value": "−0.426"}, {"measurement": "Igha LN (average fold change)", "setting": "cluster ID 9, OVA vs PBS", "value": 0.227}, {"measurement": "Ighg3 LN (average fold change)", "setting": "cluster ID 9, OVA vs PBS", "value": 1.831}, {"measurement": "Il2 LN (average fold change)", "setting": "cluster ID 9, OVA vs PBS", "value": 0.918}, {"measurement": "Lnx2 LN (average fold change)", "setting": "cluster ID 9, OVA vs PBS", "value": 0.811}, {"measurement": "Malat1 LN (average fold change)", "setting": "cluster ID 9, OVA vs PBS", "value": "−0.269"}, {"measurement": "Mcpt1 LN (average fold change)", "setting": "cluster ID 9, OVA vs PBS", "value": 2.708}, {"measurement": "Narf LN (average fold change)", "setting": "cluster ID 9, OVA vs PBS", "value": 0.449}, {"measurement": "Nme2 LN (average fold change)", "setting": "cluster ID 9, OVA vs PBS", "value": 0.703}, {"measurement": "Rsrp1 LN (average fold change)", "setting": "cluster ID 9, OVA vs PBS", "value": "−0.274"}]}
